Like-named read-outs stand apart in the source and are kept apart here.
What was measured:
GpIbα‐Fc fusion protein [1] = experiment: ELISA
GpIbα‐Fc fusion protein [2] = experiment: SPR
[3] = target: ΔD′D3‐VWF lacking the NFP (ΔD′D3NFP‾‐VWF) (human) (UniProt P04275); experiment: ELISA
[4] = target: ΔD′D3‐VWF with Ala mutations replacing Thr/Ser (ΔD′D3OG‾‐VWF) (human) (UniProt P04275); experiment: ELISA
[5] = target: Dimeric full‐length VWF (ΔPro‐VWF) (human) (UniProt P04275); experiment: ELISA
[6] = target: ΔD′D3‐VWF lacking the NFP (ΔD′D3NFP‾‐VWF) (human) (UniProt P04275); experiment: ELISA; remark: listed apart in the source

Row | Kd (GpIbα‐Fc fusion protein [1]) [nM] | Kd (GpIbα‐Fc fusion protein [2]) [nM] | Substance | other results
1 | 102 |  | Dimeric full‐length VWF (ΔPro‐VWF) (from UniProt P04275 764-2813) (natural protein) | 
2 |  | 1700 | D′D3‐A1 (from UniProt P04275 764-1480) (domain or fragment) | 
3 |  |  | GpIbα‐Fc fusion protein | Kd [3]: 7.5 nM; Kd [4]: 5 nM; Kd [5]: 15 nM; Kd [6]: 7 nM
4 |  | 1200 | VWF‐A1 (monomeric A1 domain with the N‐terminal flanking peptide) (from UniProt P04275 1243-1480) (domain or fragment) | 
5 | 0.7 |  | ΔD′D3‐VWF lacking the NFP (ΔD′D3NFP‾‐VWF) (from UniProt P04275 1267-2813) (domain or fragment) | 
6 | 2.4 |  | ΔD′D3‐VWF with Ala mutations replacing Thr/Ser (ΔD′D3OG‾‐VWF) (from UniProt P04275 1243-2813) (domain or fragment) | 
